Assay results from US20190127480A1 (Regeneron, published 2019).

B1: H2M3547N (antibody, mouse IgG2, V domains shown)
VH: EAQLVESGGGLVQPGRSLRLSCTTSGFTFDDYTMHWVRQAPGKGLEWISDISWNGGTKGYADSVKGRFTISRDNAKNSLYLQMDSLRGEDTALYYCVKDKSGYGHFYFGLDVWGQGTTVTVSS
VL: DIQMTQSPSSLTASVGDRVTFTCRASQSISRHLSWYQQKPGKAPKLLIYAASSLESGVPSRFSGSGSGTDFTLTISSLHPEDFATYYCQQSYSNPPITFGQGTRLEIK
notes: H2M: mouse IgG2 Fc, human variable regions; divalent
B2: H1H5786B (antibody, human IgG1, V domains shown)
VH: QVQLVESGAEVKKPGASVKVSCKTSGYTFTGYYMHWIRQAPGQGLEWMGWINPKSGGTNYAQKFQGRVTMTRDTSISTAYMELSRLRSDDMAVYYCARMGDGAVFDFWGQGTLVTVSS
VL: AIQMTQSPSSLSASVGDRVTITCRASQRISSFLNWYQQKPGKAPKLLIYTASNLQNGVPSRFSGSGSGTDFTLTISSLQPEDFATYYCQQSYRTPLTFGGGTKVEIKR
notes: H1H: human IgG1 Fc
B3: H1H5791B (antibody, human IgG1, V domains shown)
VH: QVQLVESGAEVKKPGASVKVSCKTSGYTLSGYYMHWMRQAPGQGLEWMGWINPKSGVTNYAQKFQDRVAMTRDTSISTAYMELSRLRSDDTAVYYCARMGDGAVFDFWAQGTLVTVSS
VL: DIQLTQSPSSLSASVGDRVTITCRASQRISSFLNWYQQKPGKAPKLLIYTASNLQNGVPSRFSGSGSGTDFTLTISSLQPEDFATYYCQQSYRTPLTFGGGTKLEIKR
notes: H1H: human IgG1 Fc
B4: H1H5755B (antibody, human IgG1, V domains shown)
VH: EVQLVESGGGVVQPGRSLRLSCAASGFTFSNYGMHWVRQAPGKGLEWVTVILHDGSYKYYADSVKGRFTISRDNSKNTLHLQMNSLRTEDTAVYYCAKGPMFRGVPYNHYYGMDVWGQGTTVTVSS
VL: DIQMTQSPSSLSASVGDRVTITCRASQGIRNDLGWYQQKPGKAPKRLIYAASSLQSGVSSRFSGSGSGTEFTLTISSLQPEDFATYYCLQHNSYPYTFGQGTKVEIKR
notes: H1H: human IgG1 Fc
B5: H1H5757B (antibody, human IgG1, V domains shown)
VH: EVQLVESGGGVVQPGRSLRLSCAASGFTFSSYGMHWVRQAPGKGLEWVTVILHDGSNRYSADSVKGRFTISRDNSKNTLYLQMNILRVEDTAVYYCTKGAMVRGVPYNHYYGMDVWGQGTTVTVSS
VL: DIQMTQSPSSLSASVGDRVTITCRASQGIRNDLGWYQQKPGKAPKRLIYAASILQSGVPSRFSGSGSGTEFTLTISSLQPEDFATYYCLQHNSYPYTFGQGTKLEIKR
notes: H1H: human IgG1 Fc
B6: H1H5758B (antibody, human IgG1, V domains shown)
VH: EVQLVESGGGVVQPGRSLRLSCAASGFTFSSYGMHWVRQAPGKGLEWVTVILHDGSNRYYADSVKGRFTISRDNSKNTLYLQMNILRAEDTAVYYCTKGAMVRGVPYNHYYGMDVWGQGTTVTVSS
VL: DIVMTQSPSSLSASVGDRVTITCRASQGIRNDLGWYQQKPGKAPKRLIYAASNLQSGVPSRFSGSGSGTEFTLTISSLQPEDFATYYCLQHNSYPYTFGQGTKLEIKR
notes: H1H: human IgG1 Fc
B7: H2M3541N (antibody, mouse IgG2, V domains shown)
VH: EVQLVESGGGLVRPGRSLRLSCAASGFTFDDYTMHWVRQAPGKGLEWVSDISWNSGTIGYADSVKGRFTISRDNAKNSLYLQMNSLRPEDTALYYCAKDMSGYAHYYYYGMDVWGQGTTVTVSS
VL: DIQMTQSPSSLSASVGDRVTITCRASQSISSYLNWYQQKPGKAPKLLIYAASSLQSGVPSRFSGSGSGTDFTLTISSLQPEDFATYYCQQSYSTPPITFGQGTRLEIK
notes: as for B1
B8: H1H5753B (antibody, V domains shown)
VH: QVQLVESGGGLVQPGGSLRLSCAASYFTFSSFAMNWVRQAPGQGLEWVSAISGRVSAISGSGGITYYADSVKGRFIISRDNSKNTLYLQMSGLRAEDTAVYYCAKGPYLTTVTPFDYWGQGTLVTVSS
VL: DIQLTQSPSSVSASVGDRVTITCRASQGISSWLAWYQQKPGKAPKLLIYAVSSLQNGVPSRFSGSGSGTDFTLTISSLQPEDFATYYCQQANSFPFTFGPGTKLEIK
B9: H1H5782P (antibody, human IgG1, V domains shown)
VH: EVQLVESGGGLVQPGRSLRLSCAASGFTFDDYAMHWVRQAPGKGLEWVSGISWNSGSKDYADSVKGRFTISRDNTRNSLFLQMNSLRTEDTALYYCAKDKSGYGSFYYGMDVWGQGTTVTVSS
VL: not shown
notes: H1H: human IgG1 Fc
B10: H1H5763P (antibody, human IgG1, V domains shown)
VH: QVQLVESGGGVVQPGRSLRLSCAASGLTFSSYGMHWVRQAPGKGLEWVAVISYDGSNKYYTDSVKGRFTISRDNSKNTLYLQMNSLRAEDTAVYYCAKGAMVRGVPYNYYYGMDVWGQGTTVTVSS
VL: DIQMTQSPSSLSASVGDRVTITCRASQGIRNDLGWYQQKPGKAPKRLIYAASSLQSGVPSRFSGSGSGTEFTLTISSLQPEDFATYYCLQHNSYPYTFGQGTKLEIK
notes: H1H: human IgG1 Fc
B11: H2M3540N (antibody, mouse IgG2, V domains shown)
VH: QVHLEESGGGVVQPGRSLRLSCSASGFTFSSYAMHWVRQAPGKGLEWVAVIWYDGTNKYYLDSVKGRFTISRDNSKNTLFLQMNSLRAEDTAVYYCARDRGSIITHWGQGTLVTVSS
VL: DIQMTQSPSSLSASIGDRVTITCRASQNISSYLNWYQQKPGKAPKLLIYAASSLQSGVPSRFSGSGSGTDFTLTISSLQPEDFATYYCQQTYSTPPITFGQGTRLEIK
notes: as for B1
B12: H2M3563N (antibody, mouse IgG2, V domains shown)
VH: EVHLVESGGGLVQPGRSLRLSCAASGFTFDDYTMHWVRQAPGKGLEWVSDISWNSGSIGYADSVKGRFTVSRDNAKNSLYLQMNSLRGEDTALYYCAKDMSGYGHYGKYGMDVWGQGTTVTVSS
VL: DIQMTQSPSSLSASVGDRVTITCRASQSIRSYLNWYQQKPGKVPKLLIYAASSLQSGVPSRFSGSGSGTDFTLTINSLQPDDFATYYCQQTYSNPPITFGQGTRLEIK
notes: as for B1
B13: H2M3543N (antibody, mouse IgG2, V domains shown)
VH: EVQLVESGGGLVQPGRSLRLSCAASGFTFDDYTMHWVRQAPGKGLEWVSDISWNSGSIGYADSVKGRFTVSRDNAKNSLYLQMNSLRGEDTALYYCAKDMSGYAHYGYYGMDVWGQGTTVTVSS
VL: DIQMTQSPSSLSASVGDRVTITCRASQSIRNYLNWYQQKPGKVPKLLIYAASSLQSGVPSRFSGSGSGTDFTLTISSLQPEDFATYYCQQSYSNPPITFGQGTRLEIK
notes: as for B1
B14: H1H5752P (antibody, human IgG1, V domains shown)
VH: QVQLVESGGGVVQPGRSLRPSCAASGFSFRDYGMHWVRQAPGKGLEWMAHIWYNGKNKYYADSVKGRFTISRDNSKNTLYLQMNSLRPEDTAVYYCARDGVSARGTPFDYWGQGTLVTVSS
VL: ETTLTQSPAFMSAAPGDKVSISCIASQYIDDDVNWYQQKPGETAIFIIQEASTLVPGISPRFSGSGYGTHFTLTINNIDSEDAAFYFCLQHDNFPYTFGQGTKLEIK
notes: H1H: human IgG1 Fc
B15: H2M2862N (antibody, mouse IgG2, V domains shown)
VH: QVQLVESGGGVVQPGRSLRLSCAASGFTFRSYGMHWVRQAPGKGLEWVAMIYYDGNNKKYADSVRGRFTISRDNSKNTLYLQMNSLRVEDTAVYFCARGPGYNWLDPWGQGTLVTVSS
VL: EIVMTQSPATLSVSPGERATLSCRASQSVSRNLAWYQQKPGQAPRLLIYGASTRATDIPARFSGSGSGTEFILNISSLQSEDFALYYCQQYSNWPLTFGGGTEVEIK
notes: as for B1

Key:
[1] = molecular target: T1, human CD3 expressed on cells (Jurkat cells, a CD3+ human T-cell line; human PBMC T cells) (human, UniProt P07766 23-207; P04234 22-171); assay: cell-based or functional assay
T1 sequence (P07766 23-207 limits assumed, chain 1 of 2): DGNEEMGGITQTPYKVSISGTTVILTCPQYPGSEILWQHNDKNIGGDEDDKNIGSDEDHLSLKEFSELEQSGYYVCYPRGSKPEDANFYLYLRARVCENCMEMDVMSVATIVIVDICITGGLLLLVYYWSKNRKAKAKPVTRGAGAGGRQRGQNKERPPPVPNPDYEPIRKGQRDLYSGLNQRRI
T1 sequence (P04234 22-171 limits assumed, chain 2 of 2): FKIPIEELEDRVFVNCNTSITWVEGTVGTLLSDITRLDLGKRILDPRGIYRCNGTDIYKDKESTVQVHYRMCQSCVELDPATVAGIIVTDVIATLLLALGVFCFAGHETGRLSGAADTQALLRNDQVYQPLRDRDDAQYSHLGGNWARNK

[2] = molecular target: T1, human CD3 expressed on cells (Jurkat …); assay: FACS on Jurkat cells
Description: (§1) FACS data was acquired using the following protocol: Cells at 2×10⁵ per well were incubated with serially diluted antibodies for 30 min on ice. Post incubation, cells were washed and secondary antibody was added and incubated for an additional 30 minutes. After incubation, cells were washed, re-suspended in cold PBS containing 1% BSA and analyzed by flow cytometry with viable Jurkat cells gated by side and forward scatters. The EC₅₀s for cell binding titration were determined using Prism software with values calculated using a 4-parameter non-linear regression analysis.

[3] = molecular target: T2, Soluble heterodimeric CD3 protein (hCD3-epsilon/hCD3-delta) with either a human Fc tag (hFcΔAdp/hFc) or a … (human, UniProt P07766 23-126; P04234 22-105); assay: SPR Biacore 25C antigen-capture
T2 construct: also called hCD3ε/δ; not shown: Fc tag: human (hFcΔAdp/hFc)
T2 sequence (P07766 23-126 limits assumed, stated change not applied, chain 1 of 2): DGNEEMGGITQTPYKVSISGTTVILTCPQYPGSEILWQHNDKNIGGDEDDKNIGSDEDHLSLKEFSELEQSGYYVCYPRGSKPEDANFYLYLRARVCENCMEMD
T2 sequence (P04234 22-105 limits assumed, stated change not applied, chain 2 of 2): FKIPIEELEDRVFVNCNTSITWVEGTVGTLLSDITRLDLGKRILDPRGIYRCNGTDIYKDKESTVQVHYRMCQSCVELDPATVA
Procedure, shortened: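 Rate constants fitted to a 1:1 model, giving KD as kd/ka and dissociative half-life as ln2/(60·kd) minutes. Antibodies flowed over CD3ε/δ heterodimer captured on anti-human or anti-mouse Fc surfaces, run on a Biacore T200 at 25 °C.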

[4] = molecular target: T3, human CD3 expressed on cells (Jurkat cells; human T-cells of PBMC) (human, UniProt P09693 23-182; P20963 22-164); assay: cell-based or functional assay
T3 sequence (chain, as listed by the source, chain 1 of 4): as the sequence (P07766 23-207 limits assumed, chain 1 of 2) above
T3 sequence (chain, as listed by the source, chain 2 of 4): as the sequence (P04234 22-171 limits assumed, chain 2 of 2) above
T3 sequence (P09693 23-182, chain 3 of 4): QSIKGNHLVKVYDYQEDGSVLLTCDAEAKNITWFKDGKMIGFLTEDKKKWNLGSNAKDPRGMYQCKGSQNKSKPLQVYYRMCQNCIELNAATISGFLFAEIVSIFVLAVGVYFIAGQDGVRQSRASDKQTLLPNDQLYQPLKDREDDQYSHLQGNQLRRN
T3 sequence (P20963 22-164, chain 4 of 4): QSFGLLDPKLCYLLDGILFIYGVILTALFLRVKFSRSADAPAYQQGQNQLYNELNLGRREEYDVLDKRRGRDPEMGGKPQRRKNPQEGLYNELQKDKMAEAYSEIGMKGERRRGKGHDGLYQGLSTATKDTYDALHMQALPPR

[5] = molecular target: T3, human CD3 expressed on cells (Jurkat …); assay: FACS titration on Jurkat cells (CD3+ human T-cell line)
Description: as §1

[6] = molecular target: T3, human CD3 expressed on cells (Jurkat …); assay: cell-based or functional assay; remark: listed apart in the source

Row | Binder | EC50 [M] hPBMC Proliferation [1] | EC50 [2] | Kd [3] | T½ [3] | koff [3] | U937 Cytotoxicity Human T-cells [4] | EC50 [5] | EC50 [M] hPBMC Proliferation [6] | kon [3] | binding result [5]
1 | B1 | 5.02e-12 M | 2.71 nM | ≤ 0.0215 nM | 19.2 h | ≤ 1e-05 s⁻¹ |  |  |  |  | 
2 | B2 |  |  |  |  |  | 61 pM | 1.1 nM | 1.79e-12 M |  | 
3 | B3 |  |  |  |  |  | 80.1 pM | 3.77 nM | 1.75e-12 M |  | 
4 | B4 |  |  |  |  |  | 51.6 pM | 1.23 nM | 4.24e-12 M |  | 
5 | B5 |  |  |  |  |  | 96.5 pM | 3.38 nM | 4.86e-12 M |  | 
6 | B6 |  |  |  |  |  | 88600 pM | 1.9 nM | 2.13e-12 M |  | 
7 | B7 | 6.4e-12 M | 3.7 nM | 13.8 nM | 0.167 h | 0.00116 s⁻¹ |  |  |  | 84000 M⁻¹ s⁻¹ | 
8 | B8 |  |  |  |  |  | 379 pM |  | 9.14e-11 M |  | 
9 | B9 |  |  |  |  |  | 5.18 pM |  | 5.17e-12 M |  | no binding
10 | B10 |  |  |  |  |  |  | 2.76 nM | 3.11e-13 M |  | 
11 | B11 | 3.16e-12 M | 3.99 nM | 0.231 nM | 0.333 h | 0.000587 s⁻¹ |  |  |  | 2.55e+06 M⁻¹ s⁻¹ | 
12 | B12 | 7.74e-12 M | 1.07 nM | 0.0773 nM | 4.03 h | 4.77e-05 s⁻¹ |  |  |  | 616000 M⁻¹ s⁻¹ | 
13 | B13 | 6.12e-12 M | 5.63 nM | 0.653 nM | 2.42 h | 7.96e-05 s⁻¹ |  |  |  | 122000 M⁻¹ s⁻¹ | 
14 | B14 |  |  |  |  |  | 18.5 pM | 0.343 nM | 1.09e-12 M |  | 
15 | B15 | 6.72e-13 M | 7.68 nM | 0.541 nM | 0.6 h | 0.000321 s⁻¹ |  |  |  | 591000 M⁻¹ s⁻¹ | 
